Measured values published in patent US20230037911A1 (SHANGHAI HENLIUS BIOTECH, published 2023).

T1: recombinant human TIGIT extra cellular domain (ECD) protein (human, UniProt Q495A1 22-138)
T1 construct: Purchased protein; it begins with the signal peptide; also called h-TIGIT ECD; human TIGIT ECD
T1 sequence: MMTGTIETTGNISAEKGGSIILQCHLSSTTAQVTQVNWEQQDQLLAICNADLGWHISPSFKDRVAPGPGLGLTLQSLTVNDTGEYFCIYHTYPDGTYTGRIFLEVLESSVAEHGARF

T2: human TIGIT stably expressed on cells (Jurkat; 293T) (human, UniProt Q495A1 22-244)
T2 construct: the expression vector's insert is not described further; also called h-TIGIT; human TIGIT transfected Jurkat cells
T2 sequence: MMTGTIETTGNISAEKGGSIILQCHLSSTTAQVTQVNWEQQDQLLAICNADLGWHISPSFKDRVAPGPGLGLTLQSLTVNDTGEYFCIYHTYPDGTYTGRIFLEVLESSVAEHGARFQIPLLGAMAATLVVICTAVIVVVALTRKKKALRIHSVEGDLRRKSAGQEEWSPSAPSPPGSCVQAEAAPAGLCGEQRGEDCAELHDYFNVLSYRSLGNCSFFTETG


Experiments:
[1] = target: T1, recombinant human TIGIT extra cellular …; experiment: ELISA, VHH in supernatant on h-TIGIT ECD coated plates
[2] = target: T1, recombinant human TIGIT extra cellular …; experiment: blocking ELISA, PVR as competitor
[3] = target: T1, recombinant human TIGIT extra cellular …; experiment: PVR blocking ELISA (PVR binding to h-TIGIT blocked by the clone); scatter of IC50 against EC50, nM per the legend
[4] = target: T2, human TIGIT stably expressed on cells …; experiment: whole cell binding on TIGIT stable cells (species not named in the legend, taken as human); scatter of EC50 against IC50, nM per the legend

Row | binding result [1] | inhibition of PVR binding to h-TIGIT [2] | binding result [3] | binding result [4] | Binder
1 | binds | – | – | – | 4D5 VHH (VHH, VHH in bacterial supernatant) VHH: VDSGGGAVKAGDSLRLVCSAPGRTHGRAFNEYAMAWFRQGPGKERESVAAISSDGRFTYYAASVKGRFTISKDNAKSAAFLQMNSLKPEDTAVYYCAARDSGSGYYSRAQWYDYWGQGTQVTVSS
2 | binds | – | – | – | 3H7 VHH (VHH, VHH in bacterial supernatant) VHH: QVKLEESGGGLVQAGGSLRLSCAASGSILSAGVMRWYRQAPGKQRELVASIALDGSTGYYIDSVKGRFTISRDNAKNIVYLDMRSLEPADTAVYLCNANIRTDMRSAPFDHWGHGTQVTVSS
3 | binds | – | – | – | 4A11 VHH (VHH, VHH in bacterial supernatant) VHH: QVKLEESGGGEAQPGGSLRLSCTASGRPFSNYTMGWFRRAPGKEREFVGLAWPSPSTYVVDSVKGRFTISRDNAKNTIYLQMNSLKPEDTAIYYCAADYKSLTQSWLNAALDYWGQGTQVTVSS
4 | – | > 90% | – | – | 3G7 VHH (VHH, VHH in bacterial supernatant) VHH: QVQLVESGGGLVQAGDSLRLSCEASGRTLSTYTMGWFRRAPGKEREFVGLAWPSPSTYVVDSVKGRFTISRDNAKNTIYLQMNSLKPEDTAIYYCAADYKSLTQSWLNAALDYWGQGTQVTVSS
5 | binds | – | – | – | 4C6 VHH (VHH, VHH in bacterial supernatant) VHH: QVQLVESGGGLVQAGGSLRLACAASGRTFSSYPMGWFRQGPGKERESVAAISSDGRFTYYAASVKGRFTISKDNAKSAAFLQMNSLKPEDTAVYRCAVDPTGWGTIEADFRSWGQGTQVTVSS
6 | binds | – | – | – | 4E5 VHH (VHH, VHH in bacterial supernatant) VHH: QVQLVDSGGGVVEVGASLTLSCETSGLTSSDIAVGWFRQGPGKERESVAAISSDGRFTYYAASVKGRFTISKDNAKSAAFLQMNSLKPEDTAVYYCAARDSGSGYYSRAQWYDYWGQGTQVTVSS
7 | binds | – | – | – | 4D11 VHH (VHH, VHH in bacterial supernatant) VHH: QVQLQESGGGLVQPGGSLRLSCAASGSISSINAMGWYRLAPGKHREFVADITNSGSTNYAASVKGRFNISRDNAKDTVYLQMNSLKFEDTAVYYCTARRSTWYISSGRGTQVTVSS
8 | binds | – | – | – | 4H6 VHH (VHH, VHH in bacterial supernatant) VHH: QVQLVESGGGLATAGASLILSCAASGTIFRLNRMGWFRQAPGKERERVAATIWSGRRTHYADSVKGRFTISTDNAKKTVYLRMSSLKPEDTAVYYCNYRRITPWEASGNYWGQGTQVTVSS
9 | – | – | binds | binds | 1A10 VHH (VHH, VHH in bacterial supernatant) VHH: QVQLVESGGGVVQPGRSLRLSCAASGNSFSSYPMGWFRQAPGKERESVAAISSDGRFSYYADSVKGRFTISRDNSKNTLYLQMNSLRAEDTAVYYCACRDSGSGYYSRAQWYDYWGQGTLVTVSS
10 | – | – | binds | binds | 2D5 VHH (VHH, VHH in bacterial supernatant) VHH: QVQLVESGGGVVQPGRSLRLSCAASGPSFSSSPMGWFRQAPGKERESVAAISWDGRFTYYADSVKGRFTISRDNSKNTLYLQMNSLRAEDTAVYYCAARDSGSGYYSRAQWYVYWGQGTLVTVSS
11 | – | – | binds | binds | 2A5 VHH (VHH, VHH in bacterial supernatant) VHH: QVQLVESGGGVVQPGRSLRLSCAASGPSFSSYPMGWFRQAPGKERESVAAISSVGRFTYYADSVKGRFTISRDNSKNTLYLQMNSLRAEDTAVYYCAARDSGSGYYSRWQWYDYWGQGTLVTVSS
12 | – | – | binds | binds | 5E8 VHH (VHH, VHH in bacterial supernatant) VHH: QVQLVESGGGVVQPGRSLRLSCAASGPSFSSYPMGWFRQAPGKERESVAAQSSDGRFTYYADSVKGRFTISRDNSKNTLYLQMNSLRAEDTAVYYCAARDSGSGYYSRAQWYDYWGQGTLVTVSS
13 | – | – | binds | binds | 5G10 VHH (VHH, VHH in bacterial supernatant) VHH: QVQLVESGGGVVQPGRSLRLSCAASGPRFSSYPMGWFRQAPGKERESVAAISSDGRFTYYADSVKGRFTISRDNSKNTLYLQMNSLRAEDTAVYYCAARDSGSGYYSRAQWYDGWGQGTLVTVSS
14 | – | – | binds | binds | 2C5 VHH (VHH, VHH in bacterial supernatant) VHH: QVQLVESGGGVVQPGRSLRLSCAASGPSFSTYPMGWFRQAPGKERESVAAISSQGRFTYYADSVKGRFTISRDNSKNTLYLQMNSLRAEDTAVYYCAARDSGSGYYSRAQWYDYWGQGTLVTVSS
15 | – | – | binds | binds | 2A6 VHH (VHH, VHH in bacterial supernatant) VHH: QVQLVESGGGVVQPGRSLRLSCAASGPSFSLYPMGWFRQAPGKERESVAAISSDRRFTYYADSVKGRFTISRDNSKNTLYLQMNSLRAEDTAVYYCAARDSGSGYYSRAQWYDYWGQGTLVTVSS
16 | – | – | binds | binds | 6D12 VHH (VHH, VHH in bacterial supernatant) VHH: QVQLVESGGGVVQPGRSLRLSCAASGPSFSTYPMGWFRQAPGKERESVAAISSDGVFTYYADSVKGRFTISRDNSKNTLYLQMNSLRAEDTAVYYCAARDSGSGYYSREQWYDYWGQGTLVTVSS
17 | – | – | binds | binds | 7B11 VHH (VHH, VHH in bacterial supernatant) VHH: QVQLVESGGGVVQPGRSLRLSCAASGPSFLIYPMGWFRQAPGKERESVAAISSDGRFWYYADSVKGRFTISRDNSKNTLYLQMNSLRAEDTAVYYCAARDSGSGYYSRVQWYDYWGQGTLVTVSS
18 | – | – | binds | binds | 1C7 VHH (VHH, VHH in bacterial supernatant) VHH: QVQLVESGGGVVQPGRSLRLSCAASGPSFSSYPMGWFRQAPGKERESVAAISSRGRFTYYADSVKGRFTISRDNSKNTLYLQMNSLRAEDTAVYYCAARGSGSGYYSRAQWYDYWGQGTLVTVSS
19 | – | – | binds | binds | 6D8 VHH (VHH, VHH in bacterial supernatant) VHH: QVQLVESGGGVVQPGRSLRLSCAASGPSFSSKPMGWFRQAPGKERESVAARSSDGRFTYYADSVKGRFTISRDNSKNTLYLQMNSLRAEDTAVYYCAARDSGSGRYSRAQWYDYWGQGTLVTVSS
20 | – | – | binds | binds | 1D11 VHH (VHH, VHH in bacterial supernatant) VHH: QVQLVESGGGVVQPGRSLRLSCAASGPSFSSSPMGWFRQAPGKERESVAAISSMGRFTYYADSVKGRFTISRDNSKNTLYLQMNSLRAEDTAVYYCAARDSGSGYYSRAQWYDYWGQGTLVTVSS
21 | – | – | binds | binds | 6E9 VHH (VHH, VHH in bacterial supernatant) VHH: QVQLVESGGGVVQPGRSLRLSCAASGPSRSSYPMGWFRQAPGKERESVAAISSDGKFTYYADSVKGRFTISRDNSKNTLYLQMNSLRAEDTAVYYCAARDSGSGYYSRANWYDYWGQGTLVTVSS
22 | – | – | binds | binds | 5B5 VHH (VHH, VHH in bacterial supernatant) VHH: QVQLVESGGGVVQPGRSLRLSCAASGPSFSSYPMGWFRQAPGKERESVAAISSDTRFTYYADSVKGRFTISRDNSKNTLYLQMNSLRAEDTAVYYCAARDSGSGYYSRAQWYDRWGQGTLVTVSS
23 | – | – | binds | binds | 6B11 VHH (VHH, VHH in bacterial supernatant) VHH: QVQLVESGGGVVQPGRSLRLSCAASGPSFPSYPMGWFRQAPGKERESVAAISSRGRFTYYADSVKGRFTISRDNSKNTLYLQMNSLRAEDTAVYYCAARDSGSGYYSRLQWYDYWGQGTLVTVSS
24 | binds | – | – | – | 4C5 VHH (VHH, VHH in bacterial supernatant) VHH: QVQLVDSGGGLVQAGGSLRLSCAVSGRSVSTYFVGWFRQAPGKEREFVAAIDRGSTVTRYDDSVKGRFTISRDNAKDTVYLQMNSLKPEDTAVYYCAAKAITRNFIATNDYDYWGQGTQVTVSS
25 | binds | – | – | – | 12H7 VHH (VHH, VHH in bacterial supernatant) VHH: QVQLVDSGGGLVQAGGSLRLSCKVSGNFLSVSDMSWYRQAPGMERDVVATVTEHGRTTYTDSVKGRFTISRDNAEHTTYLEMNNLKPEDTAVYFCKASDVFTDAGAHEAVLIRDYWGQGTQVTVSS
26 | binds | – | – | – | 4B5 VHH (VHH, VHH in bacterial supernatant) VHH: QVKLEESGGRSVLAGGSLRLRCAGTPRTFSTFHIGWFRQAPGKEREFVAAFNWSGGRTYYADSVKGRFTISRNNGKNMVYLQMTSLTPEDTGLYYCAAARDRGLHDGTTSDSYLEGSHEYEYWGQGTQVTVSS
27 | binds | – | – | – | 4H9 VHH (VHH, VHH in bacterial supernatant) VHH: QVQLVESGGGAVQAGGSLRLSCTASGPIARSRSTGMGWFRQGPGKERESVAAISSDGRFTYYAASVKGRFTISKDNAKSAAFLQMNSLKPEDTAVYYCAARDSGSGYYSRAQWYDYWGQGTQVTVSS
